The data set concerns the molecule itself. Description: cryo-EM structure.

This is an account of results in paper PMC11375168 (Nature Communications, 2024).

B1: Mycobacterium tuberculosis EfpA (MtEfpA), full length, with C-terminal GFP and Strep-Tag II (natural protein)
chain: MTALNDTERAVRNWTAGRPHRPAPMRPPRSEETASERPSRYYPTWLPSRSFIAAVIAIGGMQLLATMDSTVAIVALPKIQNELSLSDAGRSWVITAYVLTFGGLMLLGGRLGDTIGRKRTFIVGVALFTISSVLCAVAWDEATLVIARLSQGVGSAIASPTGLALVATTFPKGPARNAATAVFAAMTAIGSVMGLVVGGALTEVSWRWAFLVNVPIGLVMIYLARTALRETNKERMKLDATGAILATLACTAAVFAFSIGPEKGWMSGITIGSGLVALAAAVAFVIVERTAENPVVPFHLFRDRNRLVTFSAILLAGGVMFSLTVCIGLYVQDILGYSALRAGVGFIPFVIAMGIGLGVSSQLVSRFSPRVLTIGGGYLLFGAMLYGSFFMHRGVPYFPNLVMPIVVGGIGIGMAVVPLTLSAIAGVGFDQIGPVSAIALMLQSLGGPLVLAVIQAVITSRTLYLGGTTGPVKFMNDVQLAALDHAYTYGLLWVAGAAIIVGGMALFIGYTPQQVAHAQEVKEAIDAGEL
Take B1: the “stoichiometry N” value turned out to be 2.

The stoichiometry N is the number of molecules, sites or subunits per partner or assembly.
